Results reported in patent US20240279622A1, “COELENTERAZINE-UTILIZING LUCIFERASES WITH STABLE GLOW-TYPE LIGHT EMISSION AND METHODS OF PRODUCING AND USING THEREOF” (MASARYKOVA UNIVERZITA, priority 2021, published 2024).
Positions count from the first letter of the chain named. In names and notes the source's numbering stands. Like-named read-outs stand apart in the source and are kept apart here. Each block holds one molecule with its values, some of them ahead of it.

Legend:
[1] = Steady-state kinetic analysis of full-conversion cumulative luminescence curves; assay type: biochemical
Procedure: Each luminescence trace was measured in 3 repetitions. The concentration of coelenterazine in the final reaction mixture ranged from 0.2 to 7.9 μM while the concentration of luciferase enzymes ranged from 17 to 640 nM.
An updated protocol applying new standards for collecting and fitting steady-state kinetic data was used. Unlike the classical initial velocity analysis, which requires a sophisticated luminometer calibration and quantum yield evaluation, luminescence data were recorded when letting the reaction proceed to completion beyond the initial linear phase. The recorded luminescence traces (rate vs. time) were transformed to reaction progress curves corresponding to cumulative luminescence in time. The transformed kinetic data (product vs. time) were fitted globally with the KinTek Explorer (KinTek Corporation, USA). The software allows for the input of a given kinetic model via a simple text description, and the program then derives the differential equations needed for numerical integration automatically.
Numerical integration of rate equations searching a set of kinetic parameters that produce a minimum χ^2 value was performed using the Bulirsch-Stoer algorithm with adaptive step size, and nonlinear regression to fit data was based on the Levenberg-Marquardt method. To account for fluctuations in experimental data, enzyme or substrate concentrations were slightly adjusted (5%) to derive best fits. Residuals were normalized by sigma values for each data point. The standard error was calculated from the covariance matrix during nonlinear regression. In addition to standard error values, more rigorous analysis of the variation of the kinetic parameters was accomplished by confidence contour analysis by using FitSpace Explorer (KinTek Corporation, USA). In these analyses, the lower and upper limits for each parameter were derived from the confidence contour obtained from setting χ^2 threshold at 0.9. The scaling factor, relating luminescence signal to product concentration, was applied as one of the fitted parameters, well constrained by end-point levels of kinetic traces recorded at particular substrate concentrations. Depletion of the available substrate after the reaction was ensured by repeated injection of the fresh enzyme.
The steady-state model, described by Equation (4), was used to obtain the values of turnover number kcat, Michaelis constant Km, and equilibrium dissociation constant for enzyme-product complex Kp. A conservative estimate for diffusion-limited substrate and product binding k1 and k3 (100 μM^−1·s^−1) was used as a fixed value to mimic the rapid equilibrium assumption. An alternative form of the model, described by Equation (5), was used to obtain estimates of kcat/Km directly by setting k−1=0.

[2] = Thermal unfolding by NanoDSF (tryptophan fluorescence); assay type: physicochemical; details: for Tm / Tonset: 100 mM potassium phosphate buffer pH 7.5, 1° C./min
Procedure: Thermal unfolding was studied using NanoDSF Prometheus (NanoTemper, Germany) by monitoring tryptophan fluorescence over the temperature range of 20 to 90° C., at a heating rate of 1° C./min. The melting temperatures (Tonset and Tm) were evaluated directly by ThermControl v2.0.2.

[3] = Stopped-flow pre-steady-state kinetics of substrate binding (tryptophan fluorescence quenching); details: 15° C.; for k+1: pH 7.5, induced-fit binding mechanism
Procedure: The measurement was performed at 15° C. in 100 mM potassium phosphate buffer pH 7.5. Rapid mixing of the components was achieved using the Stopped-Flow SFM 3000 combined with the MOS-500 spectrometer (BioLogic, France). The reaction was initiated by mixing 75 μL of an enzyme with 75 μL of coelenterazine and then monitored by the change of native tryptophan fluorescence (295 nm excitation, 340±13 nm emission). The fluorescence changes were caused by the quenching effect of the coelenterazine substrate upon its binding by an enzyme. The experiment was designed in two different modes, varying either the concentration of the coelenterazine substrate or the concentration of an enzyme. Each kinetic trace was measured in seven consecutive replicates and averaged. The concentration of coelenterazine in the final reaction mixture ranged from 0.9 to 90 μM while the concentration of luciferase enzymes ranged from 0.4 to 94 μM.
The collected double-exponential kinetic traces were fitted globally with the KinTek Explorer (KinTek Corporation, USA). The software allows for the input of a given kinetic model via a simple text description, and the program then derives the differential equations needed for numerical integration automatically. Numerical integration of rate equations searching a set of kinetic parameters that produce a minimum χ^2 value was performed using the Bulirsch-Stoer algorithm with adaptive step size, and nonlinear regression to fit data was based on the Levenberg-Marquardt method. Residuals were normalized by sigma values for each data point. The standard error was calculated from the covariance matrix during nonlinear regression. In addition to standard error values, more rigorous analysis of the variation of the kinetic parameters was accomplished by confidence contour analysis by using FitSpace Explorer (KinTek Corporation, USA). In these analyses, the lower and upper limits for each parameter were derived from the confidence contour obtained from setting the χ^2 threshold at 0.95.
The time-course of the fluorescence quenching upon substrate binding was described with Equation (7) according to the induced-fit binding mechanism and the mechanism was fit directly to the collected kinetic data to obtain the values of elementary rate constants describing the substrate binding process. The quality of the best fits was compared in terms of χ^2 values, “chi-by-eye” assessment, and confidence contour analysis assessing constraint and independency of the determined parameters which confirmed that the obtained values are well-defined by the collected kinetic data.

[4] = Anaerobic equilibrium binding of coelenterazine substrate (fluorescence)
Procedure: The experiments were performed under strictly anaerobic conditions to prevent enzymatic oxidation of interacting ligands. To do so, all the equipment and material, including water, buffer, pipettes, tips, syringes, microplates, and sealing, were made anaerobic by incubating them overnight in the anaerobic glovebox Belle MR2 (Belle Technology, UK). The box was filled with ultra-high purity (UHP) nitrogen atmosphere containing the residual oxygen concentration of 2.3 ppm, as determined by the oxygen meter O2M-3 (Belle Technology, UK). Liquids were aliquoted to the volume of maximally 50 mL and were stirred overnight in the box to release any dissolved oxygen. Two hours prior to the experiment, a closed bottle with an evacuated lyophilized enzyme (oxygen depleted) was put into the glovebox, dissolved with anaerobic water, and incubated to remove any remaining oxygen possibly dissolved in the solution. Similarly, the stock solution of coelenterazine or coelenteramide in ethanol, which was long-term stored in a freezer under the nitrogen atmosphere without oxygen, was put into the glovebox in a closed bottle. A small aliquot of coelenterazine/coelenteramide was transferred into a new empty bottle and kept open for about 20 minutes to remove the remaining dissolved oxygen. After the incubation, a few microliters of an enzyme were mixed with the same amount of coelenterazine, and the mixture was visually inspected for any possible bioluminescence. If no light was observed and the mixture remained yellow even after a minute, all the reagents were ready for anaerobic measurements.
(§1) In the anaerobic glovebox, 200 μL of a differently concentrated enzyme was put into a separate well in a microplate and into each of these wells, 5 μL of coelenterazine or coelenteramide stock solution was added. As a blank, 200 μL of the enzyme was mixed with 5 μL of ethanol for each enzyme concentration. […] The extent of coelenterazine binding at each concentration was determined by measuring fluorescence spectra ranging from 480 to 580 nm upon excitation at 420 nm using the microplate spectrophotometer Varioskan LUX (Thermo Scientific, USA). Binding of coelenteramide was monitored by measuring fluorescence spectra ranging from 350 to 700 nm upon excitation at 330 nm. […]
The obtained fluorescence spectra were visually inspected for characteristic peaks, and the value of the maximal fluorescence intensity Fluomax at these peaks was plotted against the enzyme concentration. The final value of the dissociation constant Kd was determined by fitting the dependence with the hyperbolic Equation (8) using the software Origin 6.1 (OriginLab, USA).

[5] = Anaerobic equilibrium binding of coelenteramide product (fluorescence); details: pH 7.5, 30° C., read-out: Dissociation constant Kd, Coelenteramide product
Procedure: The experiments were performed under strictly anaerobic conditions to prevent enzymatic oxidation of interacting ligands. To do so, all the equipment and material, including water, buffer, pipettes, tips, syringes, microplates, and sealing, were made anaerobic by incubating them overnight in the anaerobic glovebox Belle MR2 (Belle Technology, UK). The box was filled with ultra-high purity (UHP) nitrogen atmosphere containing the residual oxygen concentration of 2.3 ppm, as determined by the oxygen meter O2M-3 (Belle Technology, UK). Liquids were aliquoted to the volume of maximally 50 mL and were stirred overnight in the box to release any dissolved oxygen. […] If no light was observed and the mixture remained yellow even after a minute, all the reagents were ready for anaerobic measurements.
as §1, with “added.” for “added. As a blank, 200 μL of the enzyme was mixed with 5 μL of ethanol for each enzyme concentration.”

[6] = pH 7.5
Procedure: Solid coelenterazine was dissolved in ice-cold ethanol and stored under a nitrogen atmosphere in dark glass vials at −20° C. Before each measurement, the concentration and maintained quality of the ethanol stock solutions were verified spectrophotometrically. A buffer solution of coelenterazine was prepared by mixing an appropriate volume of the ethanol stock solution with 100 mM phosphate buffer pH 7.5 immediately before the measurement. Tested luciferase enzyme samples were dissolved in the same 100 mM phosphate buffer pH 7.5. The enzymatic reaction was initiated inside the microplate reader FLUOstar OPTIMA (BMG Labtech, Germany) by the automatic addition of 225 μL buffer solution of coelenterazine into a microplate well containing 25 μL of enzyme solution. The resulting bioluminescence activity traces were collected at 37° C. until the luminescence intensity decreased to less than 0.5% of its maximal measured value. Each luminescence trace was measured in 3 repetitions. The concentration of coelenterazine in the final reaction mixture was 2.2 μM while the concentration of luciferase enzymes was 50 nM. The obtained luminescence kinetic data were fitted to an exponential decay or a logistic model using Origin 6.1 (OriginLab, USA) and the value of half-life t1/2, defined as the time when the initial luminescence signal decreased to 50%, was calculated.

[7] = compared to RLuc; cited from earlier work
[8] = from Loening et al. (2006); cited from earlier work
[9] = Luminescence specific activity of the ancestral protein; assay type: biochemical; details: 7.9 μM coelenterazine, 37° C., compared to RLuc
Procedure: Both the coelenterazine substrate and the AncHLD-RLuc enzyme were dissolved in 100 mM potassium phosphate buffer pH 7.5 and their resulting concentrations in the reaction mixture were 7.9 μM coelenterazine, 1.5 nM RLuc, and 2.8 μM AncHLD-RLuc. Bioluminescence activity traces were collected at 37° C. over the first 72.5 seconds immediately after injection of the substrate into the enzyme solution. The activity of each enzyme sample was measured in at least three independent experiments. The collected luminescence curves were integrated to obtain a linear increase of cumulative luminescence over time, while the slope gave the final value of activity, represented in RLU·s^−1. For each enzyme, the calculated activity was related to one milligram of the enzyme to get the final value of specific activity in RLU·s^−1·mg^−1.

Kd ([1]; 100 mM phosphate buffer pH 7.5, 37° C., read-out: Kp (equilibrium dissociation constant for enzyme-product complex)): 1180 ± 50 nM
k+2 ([3]; pH 7.5): 26.6 ± 1.1 s⁻¹
k−1 ([3]; pH 7.5): 305 ± 5 s⁻¹
k−2 ([3]; pH 7.5): 23.4 ± 0.2 s⁻¹
k+1 [3]: 2.35 ± 0.04 µM⁻¹ s⁻¹
Kd ([4]; anaerobic, pH 7.5, 30° C., read-out: Dissociation constant Kd, Coelenterazine substrate): 37 ± 15 µM
Kd ratio substrate/product ([4]; ratio): 1.7 ± 0.7
Kd [5]: 22 ± 2 µM
B1: RLuc8: Eight-point mutant of RLuc (A55T, C124A, S130A, K136R, A143M, M185V, M253L, and S287L) (protein)
chain: MTSKVYDPEQRKRMITGPQWWARCKQMNVLDSFINYYDSEKHAENAVIFLHGNATSSYLWRHVVPHIEPVARCIIPDLIGMGKSGKSGNGSYRLLDHYKYLTAWFELLNLPKKIIFVGHDWGAALAFHYAYEHQDRIKAIVHMESVVDVIESWDEWPDIEEDIALIKSEEGEKMVLENNFFVETVLPSKIMRKLEPEEFAAYLEPFKEKGEVRRPTLSWPREIPLVKGGKPDVVQIVRNYNAYLRASDDLPKLFIESDPGFFSNAIVEGAKKFPNTEFVKVKGLHFLQEDAPDEMGKYIKSFVERVLKNEQ
modifications: RLuc8
kcat ([1]; 100 mM phosphate buffer pH 7.5, 37° C.): 4.7 ± 0.1 s⁻¹
Glow-type effectivity ([1]; kcat/Km divided by Km/Kp): 2.3 ± 0.2
Tm [2]: 45.0 ± 0.1 °C
Tonset [2]: 35.2 ± 0.1 °C
Half-life (t1/2) [6]: 0.106 ± 0.001 min
Bioluminescence activity improvement [7]: 4.3 fold

B2: RLuc: Luciferase isolated from the sea pansy Renilla reniformis (protein)
chain: B1 chain with T55A, A124C, A130S, R136K, M143A, V185M, L253M, L287S
modifications: RLuc
Tm [2]: 43.7 ± 0.1 °C
Tonset [2]: 36.3 ± 0.2 °C
Half-life (t1/2) [6]: 0.274 ± 0.001 min
kcat [8]: 3.9 ± 0.4 s⁻¹

k−1 ([3]; pH 7.5): 0.118 ± 0.071 s⁻¹
k+1 [3]: 0.003 ± 0.003 µM⁻¹ s⁻¹
Bioluminescence activity lower than the modern luciferase enzyme [9]: > 100,000 fold
B3: AncHLD-RLuc: Reconstructed most-likelihood ancestral protein of Renilla reniformis luciferase and haloalkane dehalogenases (protein)
chain: MVSASQRTTSTATGDEWWAKCKQVDVLDSEMSYYDSDPGKHKNTVIFLHGNPTSSYLWRNVIPHVEPLARCLAPDLIGMGKSGKLPNHSYRFVDHYRYLSAWFDSVNLPEKVTIVCHDWGSGLGFHWCNEHRDRVKGIVHMESVVSPLKGWESFPETARDIFQALRSEAGEEMVLKKNFFIERLLPSSIMRKLSEEEMDAYREPFVEPGESRRPTLTWPREIPIKGDGPEDVIEIVKSYNKWLSTSKDIPKLFINADPGFFSNAIKKVTKNWPNQKTVTVKGLHFLQEDSPEEIGEAIADFLNELTK
modifications: Ancestral protein of Renilla reniformis luciferase
Tm [2]: 64.9 ± 0.1 °C
Tonset [2]: 57.4 ± 0.1 °C
Apparent melting temperature higher than RLuc ([2]; difference to RLuc): 21.2 °C
